Source: PMC6542941

How the values were obtained:
[1] = biological target: T1, human acid-sensing ion channel 1a variant hASIC1a-D212 (human) (UniProt P78348)
T1 sequence: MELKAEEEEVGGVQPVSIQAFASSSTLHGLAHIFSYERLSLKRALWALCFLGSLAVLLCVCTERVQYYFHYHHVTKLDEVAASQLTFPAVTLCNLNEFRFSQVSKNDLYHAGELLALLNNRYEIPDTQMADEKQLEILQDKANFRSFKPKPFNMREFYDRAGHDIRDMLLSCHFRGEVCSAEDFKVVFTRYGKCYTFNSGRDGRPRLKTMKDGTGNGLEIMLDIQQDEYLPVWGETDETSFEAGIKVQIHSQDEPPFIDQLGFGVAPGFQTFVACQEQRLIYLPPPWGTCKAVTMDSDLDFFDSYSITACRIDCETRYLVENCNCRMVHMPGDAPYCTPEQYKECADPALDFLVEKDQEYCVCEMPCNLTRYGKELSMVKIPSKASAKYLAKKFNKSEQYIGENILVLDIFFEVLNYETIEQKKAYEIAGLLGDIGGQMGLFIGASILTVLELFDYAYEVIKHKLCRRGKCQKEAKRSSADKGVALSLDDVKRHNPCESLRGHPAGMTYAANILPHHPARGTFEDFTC

[2] = biological target: T2, human acid-sensing ion channel 1a wild type hASIC1a-G212 (human) (UniProt P78348)
T2 sequence: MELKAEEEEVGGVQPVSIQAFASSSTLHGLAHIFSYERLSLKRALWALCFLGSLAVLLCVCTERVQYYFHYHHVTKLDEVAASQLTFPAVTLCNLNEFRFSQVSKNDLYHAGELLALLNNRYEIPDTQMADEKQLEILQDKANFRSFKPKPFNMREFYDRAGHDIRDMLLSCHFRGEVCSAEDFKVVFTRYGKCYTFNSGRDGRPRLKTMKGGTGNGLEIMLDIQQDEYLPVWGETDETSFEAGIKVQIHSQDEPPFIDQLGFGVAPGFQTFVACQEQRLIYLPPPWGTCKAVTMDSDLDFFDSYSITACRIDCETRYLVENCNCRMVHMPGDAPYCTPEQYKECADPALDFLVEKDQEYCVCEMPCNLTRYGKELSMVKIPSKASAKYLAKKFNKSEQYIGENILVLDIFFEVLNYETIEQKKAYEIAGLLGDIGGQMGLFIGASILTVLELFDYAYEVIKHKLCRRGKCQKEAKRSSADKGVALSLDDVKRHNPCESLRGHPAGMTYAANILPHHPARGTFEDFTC

human ASIC2a (human) = human ASIC2a (human) (UniProt Q16515)
Sequence of UniProt Q16515 (Q16515 whole entry): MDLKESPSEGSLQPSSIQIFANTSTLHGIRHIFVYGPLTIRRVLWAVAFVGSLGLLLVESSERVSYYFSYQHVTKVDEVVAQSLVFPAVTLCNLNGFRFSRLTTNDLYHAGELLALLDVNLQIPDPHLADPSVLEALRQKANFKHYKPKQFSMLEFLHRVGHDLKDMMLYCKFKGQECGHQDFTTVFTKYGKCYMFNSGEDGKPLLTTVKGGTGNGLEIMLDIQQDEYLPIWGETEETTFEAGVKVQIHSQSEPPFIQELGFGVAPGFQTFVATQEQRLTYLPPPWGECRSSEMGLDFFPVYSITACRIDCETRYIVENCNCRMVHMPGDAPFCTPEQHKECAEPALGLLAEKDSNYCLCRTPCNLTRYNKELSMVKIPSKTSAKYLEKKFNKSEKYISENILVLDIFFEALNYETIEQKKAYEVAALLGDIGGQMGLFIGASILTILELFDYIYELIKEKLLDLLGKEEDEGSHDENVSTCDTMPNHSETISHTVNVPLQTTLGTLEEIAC

Work on “Psalmotoxin1 (from UniProt P60514 1-40) (peptide)” yielded an IC50 of inhibition of the pH5.0-induced current, whole-cell patch-clamp of CHO cells; PcTx1 pre-applied 60 s in the conditioning pH 7.4 solution [1] of 1.19 nM and an IC50 of inhibition of the pH5.0-induced current, whole-cell patch-clamp of CHO cells; PcTx1 pre-applied 60 s in the conditioning pH 7.4 solution [2] of 1.83 nM.

B1: Mambalgin1 (peptide)
chain: LKCYQHGKVVTCHRDMKFCYHNTGMPFRNLKLILQGCSSSCSETENNKCCSTDRCNK
In the case of B1, the IC50 of inhibition of the pH5.0-induced current, whole-cell patch-clamp of CHO cells; Mambalgin1 pre-applied 60 s in the conditioning pH 7.4 solution [1] is reported as 21.7 nM and the IC50 of inhibition of the pH5.0-induced current, whole-cell patch-clamp of CHO cells; Mambalgin1 pre-applied 60 s in the conditioning pH 7.4 solution [2] is reported as 10.5 nM.

B2: human acid-sensing ion channel 1a variant hASIC1a-D212 (receptor)
chain: MELKAEEEEVGGVQPVSIQAFASSSTLHGLAHIFSYERLSLKRALWALCFLGSLAVLLCVCTERVQYYFHYHHVTKLDEVAASQLTFPAVTLCNLNEFRFSQVSKNDLYHAGELLALLNNRYEIPDTQMADEKQLEILQDKANFRSFKPKPFNMREFYDRAGHDIRDMLLSCHFRGEVCSAEDFKVVFTRYGKCYTFNSGRDGRPRLKTMKDGTGNGLEIMLDIQQDEYLPVWGETDETSFEAGIKVQIHSQDEPPFIDQLGFGVAPGFQTFVACQEQRLIYLPPPWGTCKAVTMDSDLDFFDSYSITACRIDCETRYLVENCNCRMVHMPGDAPYCTPEQYKECADPALDFLVEKDQEYCVCEMPCNLTRYGKELSMVKIPSKASAKYLAKKFNKSEQYIGENILVLDIFFEVLNYETIEQKKAYEIAGLLGDIGGQMGLFIGASILTVLELFDYAYEVIKHKLCRRGKCQKEAKRSSADKGVALSLDDVKRHNPCESLRGHPAGMTYAANILPHHPARGTFEDFTC
Work on B2 yielded an IpH5.8/IpH4.0 current ratio of co-transfected CHO cells, whole-cell patch-clamp (human ASIC2a (human)) of 0.43.

B3: human acid-sensing ion channel 1a wild type hASIC1a-G212 (receptor)
chain: MELKAEEEEVGGVQPVSIQAFASSSTLHGLAHIFSYERLSLKRALWALCFLGSLAVLLCVCTERVQYYFHYHHVTKLDEVAASQLTFPAVTLCNLNEFRFSQVSKNDLYHAGELLALLNNRYEIPDTQMADEKQLEILQDKANFRSFKPKPFNMREFYDRAGHDIRDMLLSCHFRGEVCSAEDFKVVFTRYGKCYTFNSGRDGRPRLKTMKGGTGNGLEIMLDIQQDEYLPVWGETDETSFEAGIKVQIHSQDEPPFIDQLGFGVAPGFQTFVACQEQRLIYLPPPWGTCKAVTMDSDLDFFDSYSITACRIDCETRYLVENCNCRMVHMPGDAPYCTPEQYKECADPALDFLVEKDQEYCVCEMPCNLTRYGKELSMVKIPSKASAKYLAKKFNKSEQYIGENILVLDIFFEVLNYETIEQKKAYEIAGLLGDIGGQMGLFIGASILTVLELFDYAYEVIKHKLCRRGKCQKEAKRSSADKGVALSLDDVKRHNPCESLRGHPAGMTYAANILPHHPARGTFEDFTC
Molecule B3 has an IpH5.8/IpH4.0 current ratio of co-transfected CHO cells, whole-cell patch-clamp (human ASIC2a (human)) of 0.41.
